The results in this text go back to the DeepSol protein solubility set.

A short description of this series: soluble on expression in E. coli; label from the status in PepcDB or PDB records.
On to “MEKNYYVCTGCGMLCDDIEVDVENNKINKVYTACRIGVAHMKDGKESAAFLVDNKPVDETTAISEAATILKNAKNPLIFGLGTSSNEAQKLAIELAKKTSATLDDASSFSLGEVIEALLNNKTKVCTLDDVRNKADVSIFWGTDPSDSHPRQLSKYAYFPRGTEKQRGWEEERTAICIDVRKSHTAKICGNYFFQIPPGGDAEFIDALIAALAGKLPKTSYNFPPKRILELANILKGAKFGVVFAGRGLVYSLDNLEPLIRLMNALNEKANFHLVPMIRQYNTRGFNENLFKETGYVNSVKFEDGTVKHGPEYSVVESLKEKTVDAALIIGSDPFSILPRSIAKNLLEVPVIVLDPCETLTSRNAKVYISTAIDGVESGGSAIRMDGVKVDFKPAVETKRPSDETVLKKIMEAL”, for which the “soluble on expression in E. coli” value was “not soluble”.

On to “MEKQNFVVLKNICKRFGSNTVIGNLDLEIKKGSLVTLLGPSGCGKTTVLRLVAGLEKPTSGQIFIDGEDVTERSIQQRDICMVFQSYALFPHMSLYENVAYGLKMLKLPSEEVRQRVDEALKIVDLEGMGERYVDQISGGQQQRVALARALVLKPKVLLFDEPLSNLDANLRRSMRETIRELQQRFDITSLYVTHDQAEAFAVSDTVIVMKQGDIMQIGTPQELYKAPKSMFMANFMGEANMFQGHFDGQQIHINGYAIDADLEVTRDKPNGEYQIGVRPEAITLHTQGSESQACQILKSAYMGSMYEVTVKWHDQELLLQLNSAQFNHTLTQHAYVVFNPRGLFLLPYAE”, for which the “soluble on expression in E. coli” value is listed as “not soluble”.

Turning to “MEKSIKIGFIGLGAMGKPMAINLLKEGVTVYAFDLMEANVAAVVAQGAQACENNQKVAAASDIIFTSLPNAGIVETVMNGPGGVLSACKAGTVIVDMSSVSPSSTLKMAKVAAEKGIDYVDAPVSGGTKGAEAGTLTIMVGASEAVFEKIQPVLSVIGKDIYHVGDTGAGDAVKIVNNLLLGCNMASLAEALVLGVKCGLKPETMQEIIGKSSGRSYAMEAKMEKFIMSGDFAGGFAMDLQHKDLGLALEAGKEGNVPLPMTAMATQIFEGGRAMGLGREDMSAVIKVWEQMTGVSVSGGQ”, the “soluble on expression in E. coli” value is on record as “soluble”.

On to “MEKTVNPFRIGIAPISWVNDDIPGLGDHYTQDQVLSEMAELGYVATEMGRLFSQDPPSLRAKLNQYGIELASKFIGVLFSDRSRLEEELETFQSWAEYLHDMGCKYAIVCEMGGSMHWDPRRAPEEKTIQRLTDSEWESLVDGLHRAAHICQELGMKLVYHFHAGTVVETAEEIDRLMELTDPNLVHLLYDTGHALYGGYDPVELLHRYADRIQYVHLKDIRRDVLEQVRREQLDFRTAVLRGMFTVPGDGCIDFVPIFSKLIEMGYNGWIIVEAEQDPAVAHPYTYAKMAKEYIDRLVHHLLAAQKR”, for which the “soluble on expression in E. coli” value was “not soluble”.

Take “MEKYQVKFMPDQQVIEVEKGTSLLKAASQAGIFIKSSCGGKGTCGACKVTVISGEAKSERTGNLSPEQLSRGVRLSCHTFVEGDLTVEVPPESRLQAHQVLLENANAALLTETSKDLLTYYGYHPLARKVNIRCSEPTLTDNAGDWARLSLELKRVLQSDKPLTIPLSVLQTLPETLRQAHWDLSVILTDLELGYTVLHVEPANDRPCYGLAIDVGTTTVVVYLVDLDSGEIVDKQGSYNKQAQFGDDVISRIVYAVDSKENMAEIQKAVVDTVNALIDGILERQSLTSQDIASAVIAGNTTMSQLFLGINPRYIRLEPYIPTVNSTPAVSAREIGLRLLPEALIHTYPSVASYVGGDIVSGALATDMANSDEIILFIDIGTNGEIVLGNKDWLVSCACSAGPCFEGGGILFGMRAMPGAIERVDIDPESLDVKLKVVGKIAPVGICGSGLVDCLAKLRKAGIIDRAGNFQLEHPSQSARIRATEDDKEFVLAWAHQAGGDKDIVISENDVKNLIRAKGAIYAGIRSLLQTVALEIDMIERIVIGGGFGNYLNVHDSVEIGLLPDLPQEKFEFIGNSSVKGARLALLSQKAWNEAADLARKMTYIELSIGTTFMDEFVSALFLPHTDLSLFPSVEGTFLEHHHHHH”: the “soluble on expression in E. coli” value was “soluble”.

As for “MELARPRSNFQSDLDFCPDCGSVLPLPGIQDTVICSRCGFSIDVRDCEGKVVKTSVVFNKLGATIPLSVDEGPELQGPVIDRRCPRCGHEGMAYHTRQMRSADEGQTVFYTCINCKFQEKEDS”, the “soluble on expression in E. coli” value is recorded as “soluble”.

For the sequence “MELHIWPSDFGLPTIDVVSLQFLACSKMCASPVRVIQSTRPWRSPSGELPMVAQTEGEAKPVTDFEKFVDILKKCGQDVVIDADLTTIEKAQLDAFSCYLHHNLYPAVMHTFWTDELNYNTVTQYWYASHLHFPYNLYYLEKRRKKALRLLAGKNDTEILKEAFMALNTLSTKLGDNKFFCGNKPTSLDALVFGYLAPLLRVPLPNDRLQVQLSACPNLVRFVETVSSIYLPLGEDELKRQQANRKMWQSRISKAKADKEAAKTTEEASESLPEEPPMRDAILFTLGALTLSLVFAIHTGLIQVSVEEEISE”, the “soluble on expression in E. coli” value is “not soluble”.
